What was measured:
ovalbumin = biological target: T1, ovalbumin (UniProt P01012 2-386); assay: phage ELISA
T1 sequence (looked up): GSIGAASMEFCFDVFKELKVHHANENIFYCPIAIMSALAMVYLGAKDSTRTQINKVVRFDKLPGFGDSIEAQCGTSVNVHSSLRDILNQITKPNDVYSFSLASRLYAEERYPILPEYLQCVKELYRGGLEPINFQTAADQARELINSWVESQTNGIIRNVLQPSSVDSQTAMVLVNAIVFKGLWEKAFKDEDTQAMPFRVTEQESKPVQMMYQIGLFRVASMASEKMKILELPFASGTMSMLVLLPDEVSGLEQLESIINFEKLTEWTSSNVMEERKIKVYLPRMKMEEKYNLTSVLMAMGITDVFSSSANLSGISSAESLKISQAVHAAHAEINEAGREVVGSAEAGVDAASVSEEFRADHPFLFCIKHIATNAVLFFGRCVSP

[1] = biological target: T2, bovine thyroglobulin (Sigma) (bovine, UniProt P01267 20-2769); assay: phage ELISA
T2 construct: the same entry is used
T2 sequence (P01267 20-2769 limits assumed): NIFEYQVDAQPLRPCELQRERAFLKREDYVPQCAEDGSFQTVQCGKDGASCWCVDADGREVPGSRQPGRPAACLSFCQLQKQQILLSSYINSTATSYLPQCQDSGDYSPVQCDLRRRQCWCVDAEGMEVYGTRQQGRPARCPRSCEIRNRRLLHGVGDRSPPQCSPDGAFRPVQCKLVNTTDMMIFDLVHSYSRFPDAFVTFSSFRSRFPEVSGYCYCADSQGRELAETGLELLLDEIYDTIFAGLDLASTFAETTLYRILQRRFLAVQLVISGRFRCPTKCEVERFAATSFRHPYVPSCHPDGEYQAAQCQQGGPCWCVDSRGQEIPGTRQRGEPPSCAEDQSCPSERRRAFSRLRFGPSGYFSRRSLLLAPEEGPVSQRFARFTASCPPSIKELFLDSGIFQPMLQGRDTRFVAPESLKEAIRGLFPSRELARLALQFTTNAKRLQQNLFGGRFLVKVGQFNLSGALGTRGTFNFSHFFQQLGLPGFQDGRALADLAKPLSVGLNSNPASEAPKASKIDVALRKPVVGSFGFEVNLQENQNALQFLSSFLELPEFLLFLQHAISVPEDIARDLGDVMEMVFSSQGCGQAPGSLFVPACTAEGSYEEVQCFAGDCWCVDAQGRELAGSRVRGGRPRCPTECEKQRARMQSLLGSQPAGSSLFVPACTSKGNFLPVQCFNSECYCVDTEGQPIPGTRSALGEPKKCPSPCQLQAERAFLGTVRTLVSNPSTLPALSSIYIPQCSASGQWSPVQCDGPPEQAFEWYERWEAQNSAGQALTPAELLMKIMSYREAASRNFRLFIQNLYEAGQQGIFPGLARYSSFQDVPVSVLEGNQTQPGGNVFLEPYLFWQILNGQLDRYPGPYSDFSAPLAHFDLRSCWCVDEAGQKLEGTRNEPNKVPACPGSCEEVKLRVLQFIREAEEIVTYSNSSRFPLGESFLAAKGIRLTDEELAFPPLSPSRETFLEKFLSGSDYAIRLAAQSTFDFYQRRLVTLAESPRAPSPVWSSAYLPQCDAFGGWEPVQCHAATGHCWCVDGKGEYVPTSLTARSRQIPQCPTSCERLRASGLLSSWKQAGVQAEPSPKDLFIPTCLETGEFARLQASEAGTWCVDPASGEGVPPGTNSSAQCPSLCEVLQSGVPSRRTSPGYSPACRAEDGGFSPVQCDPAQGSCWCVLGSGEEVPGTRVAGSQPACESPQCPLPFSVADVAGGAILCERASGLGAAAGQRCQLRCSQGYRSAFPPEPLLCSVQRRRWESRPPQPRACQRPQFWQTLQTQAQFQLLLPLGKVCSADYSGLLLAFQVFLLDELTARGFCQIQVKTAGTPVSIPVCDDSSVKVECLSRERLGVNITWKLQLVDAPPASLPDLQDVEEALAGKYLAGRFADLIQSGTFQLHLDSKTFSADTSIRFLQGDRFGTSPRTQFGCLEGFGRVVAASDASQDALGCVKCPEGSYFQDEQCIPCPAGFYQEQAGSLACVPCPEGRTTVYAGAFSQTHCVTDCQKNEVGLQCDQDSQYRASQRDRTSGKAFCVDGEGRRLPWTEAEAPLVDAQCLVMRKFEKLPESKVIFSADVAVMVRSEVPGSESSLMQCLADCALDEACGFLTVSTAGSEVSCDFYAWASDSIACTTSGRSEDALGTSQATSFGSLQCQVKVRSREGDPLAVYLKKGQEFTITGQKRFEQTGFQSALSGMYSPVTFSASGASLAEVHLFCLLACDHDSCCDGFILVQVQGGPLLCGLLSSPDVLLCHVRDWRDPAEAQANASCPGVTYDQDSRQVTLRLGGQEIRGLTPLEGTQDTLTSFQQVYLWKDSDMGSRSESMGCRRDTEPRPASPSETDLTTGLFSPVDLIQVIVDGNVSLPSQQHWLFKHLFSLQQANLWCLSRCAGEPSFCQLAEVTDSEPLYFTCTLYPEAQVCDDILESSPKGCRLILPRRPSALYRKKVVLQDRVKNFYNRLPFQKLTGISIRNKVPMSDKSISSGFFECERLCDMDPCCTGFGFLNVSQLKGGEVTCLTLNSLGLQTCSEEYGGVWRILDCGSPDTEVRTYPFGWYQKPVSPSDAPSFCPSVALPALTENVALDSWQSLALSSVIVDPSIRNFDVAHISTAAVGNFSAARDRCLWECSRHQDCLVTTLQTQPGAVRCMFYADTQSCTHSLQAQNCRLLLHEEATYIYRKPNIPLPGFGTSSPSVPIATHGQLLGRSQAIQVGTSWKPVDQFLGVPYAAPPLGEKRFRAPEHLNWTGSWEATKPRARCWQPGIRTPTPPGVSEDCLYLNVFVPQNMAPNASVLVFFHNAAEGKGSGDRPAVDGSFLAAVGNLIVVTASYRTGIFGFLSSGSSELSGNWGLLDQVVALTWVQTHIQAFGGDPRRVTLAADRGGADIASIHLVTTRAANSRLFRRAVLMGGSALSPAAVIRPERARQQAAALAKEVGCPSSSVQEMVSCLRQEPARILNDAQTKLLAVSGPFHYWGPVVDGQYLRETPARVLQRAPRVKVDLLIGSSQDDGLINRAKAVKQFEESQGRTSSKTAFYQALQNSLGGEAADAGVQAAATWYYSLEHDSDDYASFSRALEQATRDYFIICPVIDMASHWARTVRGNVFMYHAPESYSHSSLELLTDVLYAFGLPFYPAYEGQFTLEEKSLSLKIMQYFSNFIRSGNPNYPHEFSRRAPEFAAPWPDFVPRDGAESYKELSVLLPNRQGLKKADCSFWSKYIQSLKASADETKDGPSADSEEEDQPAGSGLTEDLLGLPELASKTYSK

| Binder | binding result (ovalbumin) | binding result [1] |
| --- | --- | --- |
| human scFv VH3.5/VL3.5 (BSA binder from unimmunized library) (scFv, V domains shown) VH: QVQLVQSGGGVVQPGRSLRLSCAASGFTFSSYGMHWVRQAPGKGLEWVAVISYDGSNKYYADSVKGRFTISRDNSKNTLYLQMNSLRAEDTAVYYCAKTGYSSGWGYFDYWGQGT VL: SSELTQDPAVSVALGQTVRITCQGDSLRSYYASWYQQKPGQAPVLVIYGKNNRPSGIPDRFSGSSSGNTASLTITGAQAEDEADYYCNSRDSSGNHVVFGG | no binding (tested: 100 ug/ml coating) | no binding (tested: 100 ug/ml coating) |
| human scFv VH14.1/VL14.1 (lysozyme binder from unimmunized library) (scFv, V domains shown, scFv on phage from pHEN1) VH: QVQLQESGPGLVKPSETLSLVCTVSGGSLSFSYWGWIRQPPGKGLEWIGYISHRGTDYNSSLQSRVTISADTSKNQFSLKLSSVTAADTAVYYCARSFSNSFFFGYWGQGT VL: SSELTQDPAVSVAFGQTVRITCQGDSLRSSYASWYQQKPGQAPLLVIYGENSRPSGIPDRFSGSSSGNTASLTITGAQAEDEADYYCNSRDSRGTHLEVFGG | no binding (tested: 100 ug/ml coating) | no binding (tested: 100 ug/ml coating) |
| human scFv VH13.1/VL13.1 (lysozyme binder from unimmunized library) (scFv, V domains shown, scFv on phage from pHEN1) VH: QVQLVQSGAEVKKPGQSLMISCQGSGYSFSNYWIGWVRQMPGKGLEWMGIIYPGDSDTRYSPSFQGQVTISADKSISTAYLHWSSLKASDTALYYCARLVGGTPAYWGQGT VL: HVILTQPASVSGSPGQSITISCTGSSRDVGGYNYVSWYQHHPGKAPKLLISEVTNRPSGVSNRFSGSKSGNTASLTISGLQAEDEADYFCASYTSSKTYVFGG | no binding (tested: 100 ug/ml coating) | no binding (tested: 100 ug/ml coating) |
